Measurements taken from paper PMC4666388.

Biological target: GST-HP1α (full-length human heterochromatin protein 1 α with N-terminal GST) (human) (UniProt P45973)
Test: pull-down; GST-HP1 anchored on GSH-Sepharose (80 pmol), 1.2 μg native oligo-nucleosomes from HeLa; absence of MgCl2; 50 mM NaCl, 20 mM Tris-HCl pH 7.4, room temperature 30 min; H3K9me3 and H4 detected by western blot

Sequence of UniProt P45973 (P45973 whole entry): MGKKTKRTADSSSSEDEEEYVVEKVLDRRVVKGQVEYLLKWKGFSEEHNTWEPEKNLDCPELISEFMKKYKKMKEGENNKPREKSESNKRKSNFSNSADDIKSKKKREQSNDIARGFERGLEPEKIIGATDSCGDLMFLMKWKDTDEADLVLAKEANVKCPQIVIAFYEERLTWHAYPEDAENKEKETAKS

native oligo-nucleosomes prepared from HeLa cell nuclei (H3K9me3-nucleosomes detected) (complex)
percent of input bound: 18 % of input
